Assays:
[1] = molecular target: Milano Short Tail Fiber (STF), gp31 (Agrobacterium tumefaciens bacteriophage Milano); experiment: cryo-EM structure; baseplate junction of purified native Milano virions in the extended state, single particle analysis with C3 symmetry, ~3.2 Å; distal parts of the receptor-binding proteins and the garland only rigid-body fitted with AlphaFold models
[2] = molecular target: Milano Tail Spike Protein (TSP), gp124 (Agrobacterium tumefaciens bacteriophage Milano); experiment: as above
[3] = molecular target: Milano tail tube protein, gp21 (Agrobacterium tumefaciens bacteriophage Milano); experiment: cryo-EM structure; extended (pre-attachment) tail of purified native Milano virions; curved tail segments reconstructed with no imposed symmetry; the straight baseplate-proximal segment was extracted from the baseplate junction structure

Q: How did the stoichiometry N [1] turn out when “Milano Short Tail Fiber (STF), gp31 (natural protein)” was run?
A: Its stoichiometry N is 3.

Q: With “Milano Tail Spike Protein (TSP), gp124 (natural protein)” as the substance, how does the stoichiometry N [2] read?
A: The stoichiometry N was 3.

Q: “Milano tail tube protein, gp21 (natural protein)” was tested. Which stoichiometry N [3] did it give?
A: The stoichiometry N was 6.
